Source: patent US20140087995A1 (published 2014)
Numbered stars: 1 amine (or outer) side, 2 acyl side, 3 side chain; on linkers, the order of the positions; unused ones are H or OH. Bridge positions count the residues as written; N and C are the ends. Side chains are listed from the residue outwards. Ends that are not written are not given here. * marks the point of attachment. C20 diacid = O=C(O)CCCCCCCCCCCCCCCCCCC(=O)*; γGlu = O=C(O)[C@H](CCC(=O)[*:2])N[*:1]; AEEA = NCCOCCOCC(=O)O

B1: N^α1-[(4S)-4-carboxy-4-(19-carboxynonadecanoylamino)butanoyl]-[Glu14,Arg17,Pro21,Pro27,Pro31]-h-amylin (peptide)
peptide: {C20 diacid-γGlu}-KCNTATCATQRLAEFLRHSSPNFGAIPSSTPVGSNTY-NH2
modifications: disulfide 2-7
SMILES: CC[C@H](C)[C@H](NC(=O)[C@H](C)NC(=O)CNC(=O)[C@H](Cc1ccccc1)NC(=O)[C@H](CC(N)=O)NC(=O)[C@@H]1CCCN1C(=O)[C@H](CO)NC(=O)[C@H](CO)NC(=O)[C@H](Cc1c[nH]cn1)NC(=O)[C@H](CCCNC(=N)N)NC(=O)[C@H](CC(C)C)NC(=O)[C@H](Cc1ccccc1)NC(=O)[C@H](CCC(=O)O)NC(=O)[C@H](C)NC(=O)[C@H](CC(C)C)NC(=O)[C@H](CCCNC(=N)N)NC(=O)[C@H](CCC(N)=O)NC(=O)[C@@H](NC(=O)[C@H](C)NC(=O)[C@@H]1CSSC[C@H](NC(=O)[C@H](CCCCN)NC(=O)CC[C@H](NC(=O)CCCCCCCCCCCCCCCCCCC(=O)O)C(=O)O)C(=O)N[C@@H](CC(N)=O)C(=O)N[C@@H]([C@@H](C)O)C(=O)N[C@@H](C)C(=O)N[C@@H]([C@@H](C)O)C(=O)N1)[C@@H](C)O)C(=O)N1CCC[C@H]1C(=O)N[C@@H](CO)C(=O)N[C@@H](CO)C(=O)N[C@H](C(=O)N1CCC[C@H]1C(=O)N[C@H](C(=O)NCC(=O)N[C@@H](CO)C(=O)N[C@@H](CC(N)=O)C(=O)N[C@H](C(=O)N[C@@H](Cc1ccc(O)cc1)C(N)=O)[C@@H](C)O)C(C)C)[C@@H](C)O
notes: also called 31; compound 31
B2: N^α1N^α1-[(4S)-4-carboxy-4-(19-carboxynonadecanoylamino)butanoyl]-[Glu14,Arg17,Pro21,Pro27,Glu35]-h-amylin (peptide)
peptide: {C20 diacid-γGlu}-KCNTATCATQRLAEFLRHSSPNFGAIPSSTNVGSETY-NH2
modifications: disulfide 2-7
SMILES: CC[C@H](C)[C@H](NC(=O)[C@H](C)NC(=O)CNC(=O)[C@H](Cc1ccccc1)NC(=O)[C@H](CC(N)=O)NC(=O)[C@@H]1CCCN1C(=O)[C@H](CO)NC(=O)[C@H](CO)NC(=O)[C@H](Cc1c[nH]cn1)NC(=O)[C@H](CCCNC(=N)N)NC(=O)[C@H](CC(C)C)NC(=O)[C@H](Cc1ccccc1)NC(=O)[C@H](CCC(=O)O)NC(=O)[C@H](C)NC(=O)[C@H](CC(C)C)NC(=O)[C@H](CCCNC(=N)N)NC(=O)[C@H](CCC(N)=O)NC(=O)[C@@H](NC(=O)[C@H](C)NC(=O)[C@@H]1CSSC[C@H](NC(=O)[C@H](CCCCN)NC(=O)CC[C@H](NC(=O)CCCCCCCCCCCCCCCCCCC(=O)O)C(=O)O)C(=O)N[C@@H](CC(N)=O)C(=O)N[C@@H]([C@@H](C)O)C(=O)N[C@@H](C)C(=O)N[C@@H]([C@@H](C)O)C(=O)N1)[C@@H](C)O)C(=O)N1CCC[C@H]1C(=O)N[C@@H](CO)C(=O)N[C@@H](CO)C(=O)N[C@H](C(=O)N[C@@H](CC(N)=O)C(=O)N[C@H](C(=O)NCC(=O)N[C@@H](CO)C(=O)N[C@@H](CCC(=O)O)C(=O)N[C@H](C(=O)N[C@@H](Cc1ccc(O)cc1)C(N)=O)[C@@H](C)O)C(C)C)[C@@H](C)O
notes: also called 22; compound 22
B3: N^α1-[(4S)-4-carboxy-4-[[(4S)-4-carboxy-4-(19-carboxynonadecanoylamino)butanoyl]amino]butanoyl]-[Glu14,Arg17,Pro21,Pro27,Pro37]-h-amylin (peptide)
peptide: {C20 diacid-γGlu-γGlu}-KCNTATCATQRLAEFLRHSSPNFGAIPSSTNVGSNTP-NH2
modifications: disulfide 2-7
SMILES: CC[C@H](C)[C@H](NC(=O)[C@H](C)NC(=O)CNC(=O)[C@H](Cc1ccccc1)NC(=O)[C@H](CC(N)=O)NC(=O)[C@@H]1CCCN1C(=O)[C@H](CO)NC(=O)[C@H](CO)NC(=O)[C@H](Cc1c[nH]cn1)NC(=O)[C@H](CCCNC(=N)N)NC(=O)[C@H](CC(C)C)NC(=O)[C@H](Cc1ccccc1)NC(=O)[C@H](CCC(=O)O)NC(=O)[C@H](C)NC(=O)[C@H](CC(C)C)NC(=O)[C@H](CCCNC(=N)N)NC(=O)[C@H](CCC(N)=O)NC(=O)[C@@H](NC(=O)[C@H](C)NC(=O)[C@@H]1CSSC[C@H](NC(=O)[C@H](CCCCN)NC(=O)CC[C@H](NC(=O)CC[C@H](NC(=O)CCCCCCCCCCCCCCCCCCC(=O)O)C(=O)O)C(=O)O)C(=O)N[C@@H](CC(N)=O)C(=O)N[C@@H]([C@@H](C)O)C(=O)N[C@@H](C)C(=O)N[C@@H]([C@@H](C)O)C(=O)N1)[C@@H](C)O)C(=O)N1CCC[C@H]1C(=O)N[C@@H](CO)C(=O)N[C@@H](CO)C(=O)N[C@H](C(=O)N[C@@H](CC(N)=O)C(=O)N[C@H](C(=O)NCC(=O)N[C@@H](CO)C(=O)N[C@@H](CC(N)=O)C(=O)N[C@H](C(=O)N1CCC[C@H]1C(N)=O)[C@@H](C)O)C(C)C)[C@@H](C)O
notes: also called 14; compound 14
B4: N^α1-[(4S)-4-carboxy-4-(19-carboxynonadecanoylamino)butanoyl]-[His14,Arg17,Pro21,Pro27,Glu35]-h-amylin (peptide)
peptide: {C20 diacid-γGlu}-KCNTATCATQRLAHFLRHSSPNFGAIPSSTNVGSETY-NH2
modifications: disulfide 2-7
SMILES: CC[C@H](C)[C@H](NC(=O)[C@H](C)NC(=O)CNC(=O)[C@H](Cc1ccccc1)NC(=O)[C@H](CC(N)=O)NC(=O)[C@@H]1CCCN1C(=O)[C@H](CO)NC(=O)[C@H](CO)NC(=O)[C@H](Cc1c[nH]cn1)NC(=O)[C@H](CCCNC(=N)N)NC(=O)[C@H](CC(C)C)NC(=O)[C@H](Cc1ccccc1)NC(=O)[C@H](Cc1c[nH]cn1)NC(=O)[C@H](C)NC(=O)[C@H](CC(C)C)NC(=O)[C@H](CCCNC(=N)N)NC(=O)[C@H](CCC(N)=O)NC(=O)[C@@H](NC(=O)[C@H](C)NC(=O)[C@@H]1CSSC[C@H](NC(=O)[C@H](CCCCN)NC(=O)CC[C@H](NC(=O)CCCCCCCCCCCCCCCCCCC(=O)O)C(=O)O)C(=O)N[C@@H](CC(N)=O)C(=O)N[C@@H]([C@@H](C)O)C(=O)N[C@@H](C)C(=O)N[C@@H]([C@@H](C)O)C(=O)N1)[C@@H](C)O)C(=O)N1CCC[C@H]1C(=O)N[C@@H](CO)C(=O)N[C@@H](CO)C(=O)N[C@H](C(=O)N[C@@H](CC(N)=O)C(=O)N[C@H](C(=O)NCC(=O)N[C@@H](CO)C(=O)N[C@@H](CCC(=O)O)C(=O)N[C@H](C(=O)N[C@@H](Cc1ccc(O)cc1)C(N)=O)[C@@H](C)O)C(C)C)[C@@H](C)O
notes: also called 30; compound 30
B5: N^α1-[(4S)-4-carboxy-4-(19-carboxynonadecanoylamino)butanoyl]-[Glu14,Arg17,Pro21,Pro27]-h-amylin (peptide)
peptide: KCNTATCATQRLAEFLRHSSPNFGAIPSSTNVGSNTY
modifications: C20 diacid-gGlu on alpha amino group of N-terminal Lys 1; Cys2-Cys7 disulfide; C-terminal amide
notes: also called compound 9
B6: N^ε1-[2-[2-[2-(19-carboxynonadecanoylamino)ethoxy]ethoxy]acetyl]-[Arg17,Pro21,Pro27,His34]-h-amylin (peptide)
peptide: K([AEEA-C20 diacid])CNTATCATQRLANFLRHSSPNFGAIPSSTNVGHNTY-NH2
modifications: disulfide 2-7; N-terminus assumed
SMILES: CC[C@H](C)[C@H](NC(=O)[C@H](C)NC(=O)CNC(=O)[C@H](Cc1ccccc1)NC(=O)[C@H](CC(N)=O)NC(=O)[C@@H]1CCCN1C(=O)[C@H](CO)NC(=O)[C@H](CO)NC(=O)[C@H](Cc1c[nH]cn1)NC(=O)[C@H](CCCNC(=N)N)NC(=O)[C@H](CC(C)C)NC(=O)[C@H](Cc1ccccc1)NC(=O)[C@H](CC(N)=O)NC(=O)[C@H](C)NC(=O)[C@H](CC(C)C)NC(=O)[C@H](CCCNC(=N)N)NC(=O)[C@H](CCC(N)=O)NC(=O)[C@@H](NC(=O)[C@H](C)NC(=O)[C@@H]1CSSC[C@H](NC(=O)[C@@H](N)CCCCNC(=O)COCCOCCNC(=O)CCCCCCCCCCCCCCCCCCC(=O)O)C(=O)N[C@@H](CC(N)=O)C(=O)N[C@@H]([C@@H](C)O)C(=O)N[C@@H](C)C(=O)N[C@@H]([C@@H](C)O)C(=O)N1)[C@@H](C)O)C(=O)N1CCC[C@H]1C(=O)N[C@@H](CO)C(=O)N[C@@H](CO)C(=O)N[C@H](C(=O)N[C@@H](CC(N)=O)C(=O)N[C@H](C(=O)NCC(=O)N[C@@H](Cc1c[nH]cn1)C(=O)N[C@@H](CC(N)=O)C(=O)N[C@H](C(=O)N[C@@H](Cc1ccc(O)cc1)C(N)=O)[C@@H](C)O)C(C)C)[C@@H](C)O
notes: also called 91; compound 91

Target: T1, human amylin receptor (amylin 3(a) receptor: human calcitonin receptor with RAMP-3) (human, UniProt P30988 25-474; O60896 24-148)
T1 construct: whole, on cells; also called hAmylin-R; hAmylinR
T1 sequence (looked up) 1: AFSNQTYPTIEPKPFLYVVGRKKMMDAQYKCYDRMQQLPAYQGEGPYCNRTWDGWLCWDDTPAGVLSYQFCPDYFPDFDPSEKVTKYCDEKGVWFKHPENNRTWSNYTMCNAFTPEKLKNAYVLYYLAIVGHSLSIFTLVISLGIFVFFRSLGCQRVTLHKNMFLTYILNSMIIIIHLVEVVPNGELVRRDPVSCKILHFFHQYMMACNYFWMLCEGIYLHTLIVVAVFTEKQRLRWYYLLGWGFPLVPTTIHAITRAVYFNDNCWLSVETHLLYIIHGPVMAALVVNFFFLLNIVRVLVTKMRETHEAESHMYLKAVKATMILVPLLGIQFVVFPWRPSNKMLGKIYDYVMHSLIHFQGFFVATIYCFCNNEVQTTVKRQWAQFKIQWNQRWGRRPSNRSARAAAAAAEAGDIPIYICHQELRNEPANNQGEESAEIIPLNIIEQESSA
T1 sequence (looked up) 2: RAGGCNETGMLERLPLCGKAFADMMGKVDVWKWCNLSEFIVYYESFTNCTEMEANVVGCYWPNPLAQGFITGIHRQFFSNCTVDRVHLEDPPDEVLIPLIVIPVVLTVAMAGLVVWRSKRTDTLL
Experiment: SPA displacement of 125I-rat amylin, hAmylin 3(a) receptor membranes
Experimental: The binding assay was performed using scintillation proximity assay (SPA) beads (RPNQ0001) from PerkinElmer and cell membranes from the Amylin 3(a)/CRE-luc cells (as described in Assay (II)) were used. Membranes were prepared in the following way; the cells were rinsed with PBS and incubated with Versene for approximately 5 min before harvesting. The cells were flushed with PBS and the cell-suspension was centrifuged for 5 min at 1000 rpm. Cells were homogenized (ultrathurrax) in a buffer containing 20 mM Na-HEPES and 10 mM EDTA (pH 7.4) and centrifuged at 20.000 rpm for 15 min. The resulting pellet was resuspended, homogenized and centrifuged (20.000 rpm, 15 min) in a buffer containing 20 mM Na-HEPES and 0.1 mM EDTA (pH 7.4, buffer 2). The resulting pellet was resuspended in buffer 2 and protein concentration was measured (BCA protein Assay, Pierce). The homogenate was kept cold during the whole procedure. The membranes were kept at −80° C. until use. The assay was performed in a 384 well Optiplate (PerkinElmer) in a total volume of 40 ul. Membranes were mixed with SPA beads. Final concentration of membranes 35 ng/μL final and SPA beads was 0.05 mg/well. Test-compounds were dissolved in DMSO and further diluted in assay buffer (50 mM Hepes, pH 7.4, 1 mM CaCl2, 5 mM MgCl₂, 0.1% OA and 0.02% Tween20). […] The final mixture was incubated with shaking at 400 rpm for 120 min at 25° C. prior to centrifugation (1500 rpm, 10 min). Samples were analyzed on TopCounter™ (Packard). The IC₅₀ was calculated using (one site binding competition analysis) GraphPad Prism5 as a measure of receptor affinity.

In order of rising IC50:
1. {C20 diacid-γGlu}-KCNTATCATQRLAEFLRHSSPNFGAIPSSTNVGSNTP-NH2 (disulfide 2-7, also called compound 8)  0.072 nM
2. B6  0.119 nM
3. B5  0.143 nM
4. B3  0.196 nM
5. B1  0.204 nM
6. B2  0.794 nM
7. {C20 diacid-γGlu}-KCNTATCATQRLAEFLRHSSPNFGAILPSTNVGSETY-NH2 (disulfide 2-7, also called 33; compound 33)  0.915 nM
8. B4  0.919 nM
